Test results taken from patent US20100004325.

T1: F-N803 peptide (FITC-labeled HIF-1α 788-822 peptide)
T1 chain: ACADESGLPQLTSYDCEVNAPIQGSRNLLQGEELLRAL

T2: B-P564 peptide (biotin-labeled HIF-1α 556-575 peptide)
T2 chain: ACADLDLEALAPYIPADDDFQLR


Legend:
[1] = target: T1, F-N803 peptide (FITC-labeled HIF-1α …)
[2] = target: T2, B-P564 peptide (biotin-labeled HIF-1α …)

Row | Protein | asparagine hydroxylation of the peptide, MALDI mass spectrometry [1] | proline hydroxylation of the peptide, MALDI mass spectrometry [2]
1 | His-FIH1 (human factor inhibiting HIF1, amino acids 1-349) (protein) MAATAAEAVASGSGEPREEAGALGPAWDESQLRSYSFPTRPIPRLSQSDPRAEELIENEEPVVLTDTNLVYPALKWDLEYLQENIGNGDFSVYSASTHKFLYYDEKKMANFQNFKPRSNREEMKFHEFVEKLQDIQQRGGEERLYLQQTLNDTVGRKIVMDFLGFNWNWINKQQGKRGWGQLTSNLLLIGMEGNVTPAHYDEQQNFFAQIKGYKRCILFPPDQFECLYPYPVHHPCDRQSQVDFDNPDYERFPNFQNVVGYETVVGPGDVLYIPMYWWHHIESLLNGGITITVNFWYKGAPTPKRIEYPLKAHQKVAIMRNIEKMLGEALGNPQEVGPLLNTMIKGRYN | The asparagine residue was hydroxylated in the baicalein-free reactant | 
2 | GST-PHD2 (human prolyl hydroxylase 2, amino acids 184-426) (protein) QTKPLPALKLALEYIVPCMNKHGICVVDDFLGKETGQQIGDEVRALHDTGKFTDGQLVSQKSDSSKDIRGDKITWIEGKEPGCETIGLLMSSMDDLIRHCNGKLGSYKINGRTKAMVACYPGNGTGYVRHVDNPNGDGRCVTCIYYLNKDWDAKVSGGILRIFPEGKAQFADIEPKFDRLLFFWSDRRNPHEVQPAYATRYAITVWYFDADERARAKVKYLTGEKGVRVELNKPSDSVGKDVF |  | The proline residue was hydroxylated in the baicalein-free reactant
